Assay results published in patent US12723255B2, “Herbicide tolerance genes and methods of use thereof” (priority 2014, dated 2026).
Read-outs that look alike come from different tables or passages of the source.

B1: MON-HT1: engineered oxygenase protein, amino acid sequence SEQ ID NO:14 (protein)
chain: MHAALTPLTNKYRFIDVQPLTGVLGAEITGVDLREPLDDSTWNEILDAFHTYQVIYFPGQAITNEQHIAFSRRFGPVDPVPILKSIEGYPEVQMIRREANESSRFIGDDWHTDSTFLDAPPAAVVMRAIEVPEYGGDTGFLSMYSAWETLSPTMQATIEGLNVVHSATKVFGSLYQATNWRFSNTSVKVMDVDAGDRETVHPLVVTHPVTGRRALYCNQVYCQKIQGMTDAESKSLLQFLYEHATKFDFTCRVRWKKDQVLVWDNLCTMHRAVPDYAGKFRYLTRTTVAGDKPSR
B2: MON-HT2: engineered oxygenase protein, amino acid sequence SEQ ID NO:18 (protein)
chain: MHAALTPLTNKYRFIDVQPLTGVLGAEITGVDLREPLDDSTWNEILDAFHTYQVIYFPGQAITNEQHIAFSRRFGPVDPVPLLKSIEGYPEVQMIRREANESSRVIGDDWHSDSTFLDAPPAAVVMRAIEVPEYGGDTGFLSMYSAWETLSPTMQATIEGLNVVHSATKVFGSLYQATNWRFSNTSVKVMDVDAGDRETVHPLVVTHPVTGRRALYCNQVYCQKIQGMTDAESKSLLQFLYEHATKFDFTCRVRWKKDQVLVWDNLCTMHRAAPDYAGKFRYLTRTTVAGDKPSR
B3: MON-HT55: engineered oxygenase protein, amino acid sequence SEQ ID NO:11 (protein)
chain: MHAALSPLSQRFERIAVQPLTGVLGAEITGVDLREPLDDSTWNEILDAFHTYQVIYFPGQAITNEQHIAFSRRFGPVDPVPLLKSIEGYPEVQMIRREANESGRVIGENWHTDSTFLDAPPAAVVMYAKEIPPYGGDTLFTSMYTAWETLSPTMQATIEGLNVVHSATRVFGSLYQAQNRRFSNTSVKVMDVDAGDRETVHPLVVTHPETGRKGLYVNQVYCQRIEGMSEKESEPLLSFLFAHATKPEFTCRVRWQEGDVLVWDNLCTQHYAVPDYAGKFRYLTRTTVGGVRPAR
B4: MON-HT51: engineered oxygenase protein, amino acid sequence SEQ ID NO:1 (protein)
chain: MHAALSPLSQRFERIAVQPLTGVLGAEITGVDLREPLSDSTWNEILDAFHTYQVIYFPGQAITNEQHIAFSRRFGPVDPVPLLKSIEGYPEVQMIRREANESGRVIGDDWHTDSSFLDAPPAAVVMRAIDVPEHGGDTGFLSMYTAYDALSDGLKKLISGLNVVHSATRVFGSLYQAQNRRFSNTSVKVMDVADGDRETVHPLVVTHPGSGRKGLYVNQVYCQRIEGMSEKESEPLLSFLFAHATKPEFTCRVRWKKDQVLVWDNLCTMHYAINDYHGQTRILHRTTVGGVRPAR

Assays:
[1] = tested on: transgenic soybean plants; test: R0 soybean green house 2,4-D spray test; assay type: in vivo; details: single copy R0 soy events
Source text: Two engineered proteins were selected for analysis in transgenic soybean. DNA constructs were produced for expressing MON-HT1 (SEQ ID NO:14) and MON-HT2 (SEQ ID NO:18) with codon usage optimized for dicot expression using methods known to those skilled in the art. Enhancers, promoters, leaders, introns, CTPs, and 3′UTRs in various combinations were operably linked to the engineered proteins in these DNA constructs. The DNA constructs were used to transform soybean using Agrobacterium tumifaciens and standard methods known in the art. Regenerated R0 transgenic plantlets were grown in the green house. Approximately 9 weeks after transformation at the 1-2 trifoliate leaf stage, single copy R0 events were identified and sprayed with 2,4-D herbicide at a rate of 0.5× (0.375 lb ae/acre), 2× (1.5 lb ae/acre), or 4× (3.0 lb ae/acre). Approximately 2 weeks after herbicide application, the plants were rated for herbicide injury on a scale of 1 to 3, where 1=little to no injury (<20%), 2=moderate injury (20-50%) and 3=severe injury (>50%).

[2] = enzyme kinetic measurements with purified protein; assay type: biochemical; details: for Km: 0-1280 uM substrate; for Vmax Fenoxaprop / Vmax Fluazifop / Vmax Haloxyfop / Vmax Quizalofop-P: relative values
Experimental: The high-throughput herbicide degradation enzyme assay was designed to assay the enzymatic activity of the engineered proteins towards various herbicides using crude bacterial extract. The engineered protein's oxygenase activity (that is, its enzymatic activity) was measured by an end point colorimetric assay utilizing detection of phenol products through measurement of absorbance at 510 nm from 4-aminoantipyrine and potassium ferricyanide. This assay was based on the assay described in Fukomori and Hausinger, Journal of Biological Chemistry (1993) 268(32):24311-24317. Enzyme reactions were assayed in 96-well plates in a total volume of 150ul that contained: 20 mM MOPS pH 6.75, 50-200 uM NH4FeSO4, 50-200 uM sodium ascorbate, 1 mM alpha-ketoglutarate (aKG), 10 ul of E. coli cell lysate containing expressed engineered protein, and substrate (either an AOPP herbicide or phenoxy acid herbicide). […] Absorbance measurements were made on a standard laboratory spectrometer. Assays were scaled as needed to enhance throughput. Standard curves were generated using purified protein or product standards.
Further protein characterization, such as Km, Vmax, and crystal structure analysis, was performed using the five engineered proteins from Table 2. For this detailed analysis, purified protein was prepared as follows: 2 ml overnight cultures of E. coli expressing a transgene encoding a given MON-HT protein were used to inoculate 500 ml of broth and grown at 37° C. for 4 hours followed by culture at 15° C. for approximately 36 hours. Then 250 ml of the 500 ml bacterial culture was pelleted by centrifugation and resuspended in 25 ml of extraction buffer (20 mM Tris, pH 7.8, 300 mM NaCl, 5 mM beta-mercaptoethanol (BME), 20 mM imidazole (Fluka/Sigma-Aldrich, St. Louis, MO), 125 units/ml of benzonase and 10K units/ml of lysozyme (Novagen, Darmstadt, Germany). The cell slurry was passed through a cell disruptor once at 20000 psi and then this cell lysate was clarified by centrifugation at 35,000×g for 20 min at 4° C. The supernatant containing the soluble His-tagged proteins was used for protein purification. For this purification, the supernatant was applied to a 1 ml HisTrap™ FF column (Nickel Sepharose) (GE Healthcare, Piscataway, NJ) using an AKTaxpress™ system (GE Healthcare, Piscataway, NJ) following the standard manufacturer's protocol. The wash buffer consisted of: 20 mM Tris pH 7.8, 300 mM NaCl, 20 mM imidazole and 5 mM BME. The composition of elution buffer was the same as the wash buffer except with 500 mM imidazole. The eluate from the nickel column was desalted on a Quick Spin Protein Sephadex G-25 fine column (Roche Applied Science, Indianapolis, IN) following the manufacturer's protocol. The eluted protein was in buffer consisting of: 20 mM Tris pH 7.8, 50 mM NaCl and 5 mM BME. Protein extract purity was assessed by SDS-PAGE analysis. Protein concentration was determined by Bradford assay using Bio-Rad Protein Assay dye reagent (Biorad, Hercules, CA, cat no 500-0006).
Purified protein for the five engineered proteins was analyzed using the enzyme assay described in this Example 1, but with four different AOPP herbicides as substrates: quizalofop-P, haloxyfop, fenoxaprop, and fluazifop. Standard curves were generated using 2,4-dichlorophenol (2,4-DCP), which was used to produce a general phenol standard curve. The amount of phenol generated in the assay by the engineered proteins was calculated based on this standard curve. The controls were purified wild-type enzyme, no enzyme, and no substrate. Enzyme kinetic measurements of the five engineered proteins was done using 0, 20, 40, 80, 160, 320, 640, or 1280 uM of quizalofop-P, haloxyfop, fenoxaprop, or fluazifop herbicides.

[3] = CTP No, 2,4-D rate 0.5X, about 2 weeks after application

Molecule | Events with 20-50% injury ([1]; CTP No, 2,4-D rate 0.5X) | Events with injury >50% ([1]; CTP No, 2,4-D rate 0.5X) | Events with <20% injury [1, 3] | Events with 20-50% injury ([1]; CTP No, 2,4-D rate 2X) | Events with <20% injury ([1]; CTP No, 2,4-D rate 2X) | Events with injury >50% ([1]; CTP No, 2,4-D rate 2X) | Events with 20-50% injury ([1]; CTP Yes, 2,4-D rate 2X) | Events with <20% injury ([1]; CTP Yes, 2,4-D rate 2X) | Events with injury >50% ([1]; CTP Yes, 2,4-D rate 2X) | Events with 20-50% injury ([1]; CTP Yes, 2,4-D rate 4X) | Events with <20% injury ([1]; CTP Yes, 2,4-D rate 4X) | Events with injury >50% ([1]; CTP Yes, 2,4-D rate 4X) | Km ([2]; read-out: Km Fenoxaprop) [µM] | Km ([2]; read-out: Km Fluazifop) [µM] | Km ([2]; read-out: Km Haloxyfop) [µM] | Km ([2]; read-out: Km Quizalofop-P) [µM] | Vmax Fenoxaprop [2] | Vmax Fluazifop [2] | Vmax Haloxyfop [2] | Vmax Quizalofop-P [2]
B1 | 10 | 0 | 120 | 30 | 6 | 0 | 35 | 101 | 0 | 6 | 5 | 0 |  |  |  |  |  |  |  | 
B2 | 19 | 0 | 3 |  |  |  |  |  |  |  |  |  |  |  |  |  |  |  |  | 
B3 |  |  |  |  |  |  |  |  |  |  |  |  | 200 | 50 | 450 | 250 | 450 | 320 | 190 | 320
B4 |  |  |  |  |  |  |  |  |  |  |  |  | 870 | 4 | 250 | 570 | 180 | 12 | 48 | 120
